The chains are these.
B1: Twister Ribozyme (parent)
chain: AACACUGCCAAUGCCGGUCCCAAGCCCGGAUAAAAGUGGAGGGGGCGG

Variants of B1 are the subject of this data set. Description: self-cleavage, relative activity (ratio to wild type); higher = more cleavage; co-transcriptional.
For the variant A1C C27A, the self-cleavage was 0.192.
To A2G G39A belongs 0.143; to A1G G24U, 0.163; to A1G A4G, 0.237.
In the case of A1G U18G, the self-cleavage stood at 0.136.
In the case of A1G U18A, the self-cleavage was 0.509.
Take A1G U18C: the self-cleavage was 0.335.
With A1G G17U, the self-cleavage was 0.221.
Regarding A1G G17C, the self-cleavage worked out at 0.128.
Regarding A1C G29A, the self-cleavage came to 0.184.
To A1C G29U belongs 0.215; to A1C G29C, 0.231.
For the variant A1C G47A, the self-cleavage worked out at 0.168.
As for A1C G47U, the self-cleavage was 0.228.
On to A1U C27G, for which the self-cleavage came to 0.0626.
For A1U C27U, the self-cleavage was 0.0591.
In the case of A1C G39U, the self-cleavage turned out to be 0.129.
In the case of A1U C46G, the self-cleavage was 0.0557.
Consider A1U C46A, for which the self-cleavage was found to be 0.0731.
In the case of A2C U31A, the self-cleavage was 0.0563.
For A2C U31C, the self-cleavage stood at 0.0894.
As for A2G G16U, the self-cleavage turned out to be 0.301.
To A2G G16A belongs 0.208.
As to A2G G7A, the self-cleavage is 0.07.
To A2G G7C belongs 0.087.
Consider A1C C9G, for which the self-cleavage worked out at 0.23.
To A1C A10C belongs 0.0756; to A1G G44A, 0.309.
On to A2C A34U, for which the self-cleavage was 0.0746.
For A2C A34C, the self-cleavage worked out at 0.108.
Turning to A1C C3G, the self-cleavage was found to be 0.161.
On to A2C G45U, for which the self-cleavage was determined as 0.0774.
On to A2C G47U, for which the self-cleavage amounted to 0.0503.
For A2C G47C, the self-cleavage amounted to 0.0493.
In the case of A2C G47A, the self-cleavage amounted to 0.0858.
Take A1U A23G: the self-cleavage was determined as 0.0754.
To A1U A23C belongs 0.09.
A1C G28A: the self-cleavage was 0.174.
As for A1C G28U, the self-cleavage amounted to 0.183.
A1C G28C: the self-cleavage came to 0.155.
With A2G G24U, the self-cleavage came to 0.0773.
Take A2G A10C: the self-cleavage stood at 0.322.
To A2G A10G belongs 0.312; to A2G C20A, 0.0649.
Take A2G C20G: the self-cleavage amounted to 0.0997.
With A2G C20U, the self-cleavage is 0.115.
Take A1U G39U: the self-cleavage came to 0.0746.
Regarding A1C C25G, the self-cleavage was 0.13.
As for A1C C25U, the self-cleavage came out at 0.192.
Regarding A2C G17C, the self-cleavage amounted to 0.0357.
Regarding A2C G44A, the self-cleavage turned out to be 0.107.
For A2C G44U, the self-cleavage is 0.0787.
A1G G42A: the self-cleavage stood at 0.215.
Consider A1G G42C, for which the self-cleavage was 0.251.
Consider A1G G42U, for which the self-cleavage is 0.187.
A2C U12G: the self-cleavage came to 0.0824.
A2C G24C: the self-cleavage came out at 0.0423.
Consider A2C G24U, for which the self-cleavage was 0.0478.
To A1G G41A belongs 0.176; to A1G G41C, 0.186.
For A1C A30G, the self-cleavage came out at 0.206.
With A2C C19U, the self-cleavage was 0.0609.
Turning to A1C A11C, the self-cleavage was found to be 0.145.
For the variant A1C A11G, the self-cleavage was determined as 0.218.
Turning to A2C U6C, the self-cleavage was determined as 0.0549.
To A2G G17U belongs 0.0694.
As to A2C A32C, the self-cleavage is 0.1.
On to A2C A32G, for which the self-cleavage stood at 0.0723.
Take A2C A32U: the self-cleavage turned out to be 0.101.
Regarding A1U C9U, the self-cleavage is 0.0321.
To A1U C9A belongs 0.0518; to A1U C26A, 0.086; to A1C G48A, 0.164.
For A1C G48C, the self-cleavage was determined as 0.168.
With A2G A35C, the self-cleavage is 0.308.
Regarding A2G A33U, the self-cleavage was 0.401.
On to A2G A33C, for which the self-cleavage was 0.503.
As for A2G A33G, the self-cleavage is 0.442.
As to A1U U37C, the self-cleavage was 0.0822.
To A2G C46U belongs 0.416; to A1C G7C, 0.121; to A1C G7A, 0.155.
For A1U G41U, the self-cleavage amounted to 0.0585.
Regarding A1U G41C, the self-cleavage is 0.0395.
To A1U G41A belongs 0.0475; to A1U A30G, 0.074; to A1U A30C, 0.0658.
In the case of A1C C14G, the self-cleavage turned out to be 0.124.
To A1G A22G belongs 0.165.
For A1G A22U, the self-cleavage turned out to be 0.255.
To A2C G29U belongs 0.0781; to A2C G29C, 0.0975; to A2C G29A, 0.0998.
With A1U G17A, the self-cleavage came to 0.0711.
With A1G G28A, the self-cleavage is 0.406.
Turning to A1G G28C, the self-cleavage is 0.466.
To A1U G44A belongs 0.0502.
On to A1G C15U, for which the self-cleavage came out at 0.405.
To A2C U37C belongs 0.0354.
In the case of A2C U37A, the self-cleavage worked out at 0.0604.
For A1C G16A, the self-cleavage was 0.209.
To A2G G36U belongs 0.0889.
In the case of A2G G36C, the self-cleavage came to 0.105.
Consider A1G C46G, for which the self-cleavage worked out at 0.428.
As for A1G C46A, the self-cleavage stood at 0.412.
To A1G A34C belongs 0.186; to A1U C25U, 0.0883; to A1U C25G, 0.0576.
To A1C U18G belongs 0.136.
To A2C G38U belongs 0.0613; to A2C G38C, 0.0461.
With A2C G38A, the self-cleavage was 0.102.
To A2G C9G belongs 0.0579; to A1C G45C, 0.176.
Regarding A1C G45U, the self-cleavage came out at 0.22.
Take A1C G45A: the self-cleavage came to 0.184.
As for A1G A11C, the self-cleavage is 0.349.
In the case of A1G A11G, the self-cleavage turned out to be 0.414.
As to A1G G36A, the self-cleavage is 0.252.
A1G G36U: the self-cleavage turned out to be 0.204.
For A1G U37G, the self-cleavage was 0.295.
To A1G U37A belongs 0.307; to A2G G41C, 0.141; to A1G C26U, 0.188.
A1G C26G: the self-cleavage stood at 0.334.
As to A1G C26A, the self-cleavage was 0.244.
As for A1C U37C, the self-cleavage stood at 0.174.
Take A1C U37G: the self-cleavage is 0.262.
With A1U A33G, the self-cleavage was 0.0708.
Take A2C A23U: the self-cleavage came to 0.0734.
For the variant A2C A23G, the self-cleavage came to 0.06.
Take A1C A32G: the self-cleavage was determined as 0.18.
To A1C A32C belongs 0.188.
Regarding A1C A32U, the self-cleavage amounted to 0.228.
Consider A2C G16A, for which the self-cleavage was 0.116.
A2C A40G: the self-cleavage was 0.059.
On to A2C A40C, for which the self-cleavage worked out at 0.07.
To A2C A40U belongs 0.0387; to A2G C14U, 0.275.
For the variant A2G C14G, the self-cleavage was found to be 0.136.
For the variant A2G A34U, the self-cleavage amounted to 0.166.
To A2G A30G belongs 0.399; to A1G C8U, 0.245; to A1G C8G, 0.262.
Consider A2C C20U, for which the self-cleavage turned out to be 0.0643.
Take A2C C20A: the self-cleavage amounted to 0.0642.
On to A2C G7C, for which the self-cleavage was determined as 0.0586.
To A2C G7A belongs 0.0438; to A1C G42A, 0.16.
On to A1C G24C, for which the self-cleavage is 0.168.
To A2G A22U belongs 0.133; to A2G A22G, 0.107; to A2G A22C, 0.129.
Take A1C A22G: the self-cleavage was 0.149.
Take A1C A22U: the self-cleavage is 0.14.
With A1U A11U, the self-cleavage was found to be 0.0684.
To A1C A40U belongs 0.11; to A1C A34C, 0.214; to A2C G28C, 0.0792.
Consider A2C G28U, for which the self-cleavage was 0.0994.
To A2C C26A belongs 0.0536; to A2C C26U, 0.0792.
Consider A1G G43C, for which the self-cleavage is 0.255.
With A1U C3G, the self-cleavage amounted to 0.0927.
On to A1U C3U, for which the self-cleavage turned out to be 0.0886.
To A1G G39C belongs 0.122.
On to A1G G39A, for which the self-cleavage came out at 0.206.

Values taken from the RNAGym collection of RNA variant scans (doi:10.7554/elife.80360).
